Each block holds one binder with its values, some of them ahead of it.
Assays:
[1] = target: T1, mouse ICOS-mFc (Chimerigen) (mouse, UniProt Q9WVS0 21-141, limits assumed); test: HTRF neutralisation of mouse B7-H2 binding to mouse ICOS-mFc, n2
T1 construct: Bought fusion; also called mICOS; recombinant mouse ICOS protein; not shown: mouse Fc
T1 sequence: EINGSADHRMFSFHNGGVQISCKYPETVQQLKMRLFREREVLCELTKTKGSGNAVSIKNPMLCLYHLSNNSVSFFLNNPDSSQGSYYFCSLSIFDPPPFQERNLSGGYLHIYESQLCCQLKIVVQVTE
Experimental: (§1) 5 μl of human ICOS-mFc (Chimerigen) at 20 nM (5 nM final) or 5 μl of mouse ICOS-mFc (Chimerigen) at 4 nM (1 nM final) were added to relevant assay wells. Plate was incubated for 1 hour (hr) at room temperature (RT).
(§2) After incubation, assay was read on Envision plate reader (Perkin Elmer) using a standard HTRF protocol. 620 nm and 665 nm channel values were exported to Microsoft Excel and % Delta-F and % Neutralisation calculations performed. Titration curves and IC50 values [M] were plotted using Graphpad (Prism). IC50 values were calculated by first transforming the data using equation X=Log(X). The transformed data was then fitted using nonlinear regression, using fitting algorithm, log (inhibitor) vs. response-variable slope (four parameters).

[2] = target: T1, mouse ICOS-mFc (Chimerigen); test: DELFIA ELISA, coated mouse ICOS-mFc, mean (only N=1 kept)
Experimental: (§3) Recombinant ICOS proteins, human ICOS-mFc or mouse ICOS-mFc (Chimerigen) were diluted in 1×PBS and added to Black Hi-bind plates (Griener) at 1 μg/ml, 50 μl/well. Recombinant PD-L1 proteins, human PD-L1-Flag-His or mouse-His were diluted in 1×PBS and added to Black Hi-bind plates (Griener) at 4 μg/ml, 50 μl/well. The plates were left overnight at 4° C. The next day plates were washed 3× with 300 μl/well of 1×PBS+0.1% Tween and blocked with 200 μl/well of 1×PBS+1% BSA blocking buffer for 1 hr at RT on a plate shaker. Plates were washed 3× with 300 μl/well of 1×PBS+0.1% Tween.
(§4) However, human-PD-L1 mAb² antibodies were diluted in 1×PBS+0.1% BSA buffer and diluted 1 in 2 from a starting working concentration of 0.066 μM over an 11 point titration. Titrated antibodies were added to the plates, 50 μl/well and left to incubate for 1 hr at R.T on a plate shaker. Plates were washed 3× with 300 μl/well of 1×PBS+0.1% Tween.
(§5) DELFIA® Eu-labelled Anti-human IgG(Perkin-Elmer) was diluted 1:500 in DELFIA Assay buffer (Perkin-Elmer) and added to the assay plate (50 μl/well), left to incubate for 1 hr at RT on a plate shaker. […] After incubation, assay was read on Envision plate reader (Perkin Elmer), Time-resolved fluorescence (TRF) was measured at 615 nm.

[3] = target: T1, mouse ICOS-mFc (Chimerigen); test: HTRF neutralisation of mouse B7-H2 binding to mouse ICOS-mFc, average
Experimental: as §1, §2

[4] = target: T2, human ICOS-mFc (Chimerigen) (human, UniProt Q9Y6W8 21-140, limits assumed); test: DELFIA ELISA, coated human ICOS-mFc, N=2
T2 construct: Bought fusion; also called hICOS; recombinant human ICOS protein; not shown: mouse Fc
T2 sequence: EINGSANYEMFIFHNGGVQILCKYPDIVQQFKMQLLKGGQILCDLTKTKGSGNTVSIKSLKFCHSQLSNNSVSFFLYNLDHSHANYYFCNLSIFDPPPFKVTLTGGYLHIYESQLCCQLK
Experimental: as §3, §4, §5

[5] = target: T1, mouse ICOS-mFc (Chimerigen); test: HTRF neutralisation of mouse B7-H2 binding to mouse ICOS-mFc, mean as told in text (table prints 5.07)
Experimental: as §2

[6] = target: T2, human ICOS-mFc (Chimerigen); test: DELFIA ELISA, coated human ICOS-mFc, N=1
Experimental: as §3, §4, §5

[7] = target: T1, mouse ICOS-mFc (Chimerigen); test: DELFIA ELISA, coated mouse ICOS-mFc, N=3
Experimental: as §3, §4, §5

IC50 [1]: 5.49 nM | EC50 [2]: 23.6 nM | IC50 [3]: 5.07 nM | EC50 [4]: 15.3 nM | IC50 [5]: 5.16 nM
B1: STIM001_457 (bispecific antibody, V domains shown, not shown: a dimerising Fc or GST)
VH: QVQVVQSGAEVKKPGASVKVSCKASGYTFSTFGITWVRQAPGQGLEWMGWISAYNGDTNYAQNLQGRVIMTTDTSTSTAYMELRSLRSDDTAVYYCARSSGHYYYYGMDVWGQGTTVTVSS
VL: DIVMTQSPLSLPVTPGEPASISCRSSQSLLHSNEYNYLDWYLQKPGQSPQLLIFLGSNRASGVPDRFSGSGSGTDFTLKITRVEAEDVGIYYCMQSLQTPLTFGGGTKVEIK
notes: mAb^2 IgG1; also called STIM001_457 mAb^2

EC50 [6]: 0.51 nM | EC50 [7]: 0.288 nM
B2: STIM003_457 (bispecific antibody, V domains shown, not shown: a dimerising Fc or GST)
VH: EVQLVESGGGVVRPGGSLRLSCVASGVTFDDYGMSWVRQAPGKGLEWVSGINWNGGDTDYSDSVKGRFTISRDNAKNSLYLQMNSLRAEDTALYYCARDFYGSGSYYHVPFDYWGQGILVTVSS
VL: EIVLTQSPGTLSLSPGERATLSCRASQSVSRSYLAWYQQKRGQAPRLLIYGASSRATGIPDRFSGDGSGTDFTLSISRLEPEDFAVYYCHQYDMSPFTFGPGTKVDIK
notes: mAb^2 IgG1; also called ST1M003_457; STIM003_457 mAb^2

Reference: US20260049143A1 (KYMAB, published 2026)
